Here are results for 1 molecule from patent publication US7807620 (TRUSTEES OF COLUMBIA UNIVERSITY IN THE CITY OF NEW YORK, dated 2010).

This test has as its target T1, recombinant native hFSH receptor (human, UniProt P23945 18-695).
T1 construct: whole, on cells
T1 sequence (looked up): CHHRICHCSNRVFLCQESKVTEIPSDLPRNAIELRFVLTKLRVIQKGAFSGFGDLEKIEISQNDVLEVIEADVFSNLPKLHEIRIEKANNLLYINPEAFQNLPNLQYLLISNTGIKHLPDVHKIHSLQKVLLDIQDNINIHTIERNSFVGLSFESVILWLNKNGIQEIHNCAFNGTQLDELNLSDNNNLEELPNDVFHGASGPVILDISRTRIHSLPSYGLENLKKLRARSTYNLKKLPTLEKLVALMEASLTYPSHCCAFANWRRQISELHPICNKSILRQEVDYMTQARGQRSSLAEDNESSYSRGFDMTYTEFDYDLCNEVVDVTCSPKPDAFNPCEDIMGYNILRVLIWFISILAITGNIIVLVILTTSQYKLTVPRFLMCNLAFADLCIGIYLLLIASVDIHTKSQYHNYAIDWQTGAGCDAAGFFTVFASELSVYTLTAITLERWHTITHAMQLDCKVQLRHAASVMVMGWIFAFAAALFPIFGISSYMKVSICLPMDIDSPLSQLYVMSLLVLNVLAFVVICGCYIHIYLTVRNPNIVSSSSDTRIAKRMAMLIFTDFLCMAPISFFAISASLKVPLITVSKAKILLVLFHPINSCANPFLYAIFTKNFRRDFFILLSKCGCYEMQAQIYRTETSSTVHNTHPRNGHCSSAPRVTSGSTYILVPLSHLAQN
Kind of test: conclusion drawn from the cAMP bioassay on Y-1 cells expressing the FSH receptor; no direct binding assay described. As to the method: Bioactivity of the hFSH analogues was evaluated using Y-1 cells transfected with the FSH receptor. Y-1 cell cultures were mixed with the fusion protein and native pituitary hFSH (control) at varying concentrations and media was assayed for cAMP activity as described in Bouloux et al, 2001.
Figure 8: FIG. 8: In vitro bioassay of hormone activity. cAMP concentration (fmol/ml) was quantitated in Y1 cells expressing the FSH receptor after treatment with the indicated amount of either pituitary FSH (PFSH) or the FSH analogue, β-hFSH-CTP-α-hFSH (rFSH-CTP).
The bioactivity of the β-hFSH-CTP-α analogue was first assessed by an assay of hFSH receptor activity. In this assay, a recombinant native hFSH receptor is expressed in a suitable host cell and cAMP induction is measured following incubation with hormone (Lindau-Shepard et al, 2001).

B1: β-hFSH-CTP-α-hFSH (ligand)
chain: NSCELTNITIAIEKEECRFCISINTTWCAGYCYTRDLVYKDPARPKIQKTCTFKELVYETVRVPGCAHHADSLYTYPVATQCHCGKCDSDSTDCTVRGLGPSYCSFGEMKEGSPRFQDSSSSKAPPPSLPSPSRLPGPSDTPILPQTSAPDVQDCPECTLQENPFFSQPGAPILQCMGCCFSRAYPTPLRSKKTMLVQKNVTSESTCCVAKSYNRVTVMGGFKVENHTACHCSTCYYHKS
notes: Secreted from CHO-K1 cells and purified on an A201 column; also called β-hFSH-CTP-α analogue; β-hFSH-CTP-α fusion protein
Regarding B1, the binding result was “binds”.
